Reference: the supplement of paper PMC9170038

Test system: MS2 coat protein
Experiment: apparent KD of MS2 coat protein; designed switch direction (-1 OFF switch, 1 ON switch): 1; higher = weaker reporter binding
How it was run: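 Apparent KD, taken as the median over clusters for each design, was obtained by curve-fitting normalised cluster fluorescence. Designed RNA switches had been transcribed on Illumina chips by stalled E. coli RNA polymerase and titrated with SNAP-549-labelled MS2 coat protein, doubling from 0.7 or 1.5 nM to 3 µM.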

[1] = Eterna round: R95, input ligand: FMN 200 uM
[2] = Eterna round: R95, input ligand: microRNA oligo, concentration not stated
[3] = Eterna round: R95, input ligand: none
[4] = input ligand: microRNA oligo, concentration not stated

Sequence | apparent KD of MS2 coat protein [1] [nM] | apparent KD of MS2 coat protein [2] [nM] | apparent KD of MS2 coat protein [3] [nM] | apparent KD of MS2 coat protein (input ligand: FMN 200 uM) [nM] | apparent KD of MS2 coat protein [4] [nM] | apparent KD of MS2 coat protein (input ligand: none) [nM]
AAGAGAGAAAUACAGGAUAUGAGGAGAGGAACAUGAGGAUCACCCAUGUGAGAGAAAGGGAAGAAUCAGAAGGGUAGAGAAGAGA [JR_SS2_Sub002] (puzzle: Same State 2) | 31.8 | 47 | 73.8 |  |  | 
AAGGAAUGAGCGUAGGAUAUAGGAGAAGUGACAUGAGGAUCACCCAUGUAAAAGGAGGGAUGAGACUAGAAGGACGAGGUAGGAG [JR_SS2_Sub058] (puzzle: Same State 2) | 57.9 | 53.3 | 81.8 |  |  | 
AAGGGCGGAAACGACAUGAGGAUCACCCAUGUUGCCGAAAGGCAGGAUAUCCGGCGAAAGCAGAAGGAGAAGGGUCAAGAACCA [AK SSNG3-V2-43] (Eterna round: R96, puzzle: Same State NG 3) |  |  |  | 38.9 | 24.7 | 43.8
AAGGUCAAGAUAGGAUAUGUUUCAUGAUAGAUAACAGAAGGAUCUAGAACAUGAGGAUCACCCAUGUGGCACAUAGAGUGGUGA [Default title] (Eterna round: R96, puzzle: Same State NG 1) |  |  |  |  | 284 | 
AAGUAGGAGUUACAGGAUAUAUGGAGAAGGACAUGAGGAUCACCCAUGUGAGAGAUGAGAGGAAGAUAGAAGGGUAAGGGAGUAA [JR_SS2_Sub026] (puzzle: Same State 2) | 44 | 41.4 | 77.2 |  |  | 
AAGUAGUGGUCAGGAUAUCAAAUCAUUGCAUCACGAUACAUGAGGAUCACCCAUGUCCCAAAAUAUGAGAAGGGACUCACACGG [Eternabot solution 45] (Eterna round: R96, puzzle: Same State NG 2) |  |  |  | 279 | 90.1 | 186
AAGUUACUAUCUCAGGAUAUCAUGUCAAAGACAUGAGGAUCACCCAUGUACCAGGAAACUGGUUAUGAGAAGGGAGAUAGUAACA [Mat - Same State 2 - Mod - D50] (puzzle: Same State 2) | 143 | 134 | 1400 |  |  | 
AAUAAACAUGAGGAUCACCCAUGUGCAACGCGUCAAGGAUAUGCAUCAAACACGCCUUGAGCAGAAGGUGACCGGA [Ladiis] (puzzle: Same State 1) | 245 | 41.7 | 16.7 |  |  | 
AAUCAACAUGAGGAUCACCCAUGUCACACAAAGUGAGGAUAUUGGAAAUAAAUAAUAAAACGAGAAGGCGCUGCGG [OBB] (puzzle: Same State 1) | 26.6 | 44.5 | 60 |  |  | 
AAUCCUGUCACAGGAUAUCCGAGGGCAACCCUCGGAGAAGGGUGAUAGUCUAACAAACACACACAUGAGGAUCACCCAUGUUAA [Sogece] (Eterna round: R96, puzzle: Same State NG 1) |  |  |  | 76.9 | 113 | 133
AAUCCUGUCACAGGAUAUCCGAGGUCAACCCUCGGAGAAGGGUGAUAGUCUAACAAACACACACAUGAGGAUCACCCAUGUUAA [Bigeceaor] (Eterna round: R96, puzzle: Same State NG 1) |  |  |  | 43.1 | 61.6 | 79.2
AAUCGUUUGAUAGGAUAUCGCUAUACAUGAGGAUCACCCAUGUUUACCACGCUGGUUUUUCAUACCGAGAAGGAUUCUGAUGAA [salish99_SSNG02_r04_003] (Eterna round: R96, puzzle: Same State NG 2) |  |  |  | 31.5 | 27.1 | 33.4
AAUCGUUUGAUAGGAUAUCGCUAUACAUGAGGAUCACCCAUGUUUACCACGCUGGUUUUUCAUACCGAGAAGGAUUCUGAUGAG [salish99_SSNG02_r04_001] (Eterna round: R96, puzzle: Same State NG 2) |  |  |  | 72.1 | 45.7 | 53.4
AAUCGUUUGAUAGGAUAUCGCUAUACAUGAGGAUCACCCAUGUUUACCACGCUGGUUUUUCAUACCGAGAAGGAUUCUGAUGAU [JL JR sub007 mod 10] (Eterna round: R96, puzzle: Same State NG 2) |  |  |  | 36 | 31.2 | 35.2
AAUUAAGAUCAAGGAUAUCACGUCGAAUAGACGUGAGAAGGUGAUCCAUACAUGAGGAUCACCCAUGUAUAACAUGAAUUAAUU [SSNG1/8-B1] (Eterna round: R96, puzzle: Same State NG 1) |  |  |  |  | 607 | 
AAUUAAGAUUAAGGAUAUCACGUCGAAUAGACGUGAGAAGGUGAUCAUAACAUGAGGAUCACCCAUGUAUUACAUGAAUUAAUU [SSNG1/3-B1] (Eterna round: R96, puzzle: Same State NG 1) |  |  |  | 873 | 218 | 498

Sequence | apparent KD of MS2 coat protein [1] [nM] | apparent KD of MS2 coat protein [2] [nM] | apparent KD of MS2 coat protein [3] [nM] | apparent KD of MS2 coat protein (input ligand: FMN 200 uM) [nM] | apparent KD of MS2 coat protein [4] [nM] | apparent KD of MS2 coat protein (input ligand: none) [nM]
AAUUAAGAUUAAGGAUAUCACGUCGAUUAGACGUGAGAAGGUGAUCAUAACAUGAGGAUCACCCAUGUAUUACAUGAAUUAAUU [SSNG1/3-B2] (Eterna round: R96, puzzle: Same State NG 1) |  |  |  | 132 | 113 | 118
AAUUAAGAUUGAGGAUAUCACGUCGUUUAGACGUGAGAAGGCGAUCAUAACAUGAGGAUCACCCAUGUAUUACAUGAAUUAAUU [SSNG1/5-B3] (Eterna round: R96, puzzle: Same State NG 1) |  |  |  | 17.8 | 20 | 34
AAUUAAUUAAUACAUGAGGAUCACCCAUGUAAUUAUUAGAUCUAGGAUAUCAGCUCGAUUAGAGCUGAGAAGGAGAUCACAUGU [SSNG3/18-B2] (Eterna round: R96, puzzle: Same State NG 3) |  |  |  |  | 13.6 | 
AAUUAAUUAAUUAAGUACAUGAGGAUCACCCAUGUAAGUGAUCAGGAUAUCAGCUCGAUUAGAGCUGAGAAGGGAUCCAUGUAC [SSNG3/15-A2] (Eterna round: R96, puzzle: Same State NG 3) |  |  |  |  | 400 | 
AAUUAAUUAAUUAAUAUACAUGAGGAUCACCCAUGUAAGAUCAAGGAUAUCAGCUCGUGUAGAGCUGAGAAGGUGAUCACAUGU [SSNG3/16-A4] (Eterna round: R96, puzzle: Same State NG 3) |  |  |  | 345 | 92.5 | 166
AAUUAAUUAAUUAAUAUACAUGAGGAUCACCCAUGUAAGAUCAAGGAUAUCAGCUCGUUUAGAGCUGAGAAGGUGAUCACAUGU [SSNG3/16-A3] (Eterna round: R96, puzzle: Same State NG 3) |  |  |  | 447 | 156 | 302
AAUUAUUAACAUGAGGAUCACCCAUGUAUCAUGAUUACUAUUAUUAGUAUCAUGAAUAGGGUUUUUGCUCGUCUUAU [ben_bell_2] (puzzle: Sensor for hsa-mir-208a version 2) | 85.9 | 26.2 | 53.5 |  |  | 
AAUUAUUAACAUGAGGAUCACCCAUGUAUUACUUCAUGUUUUUGCUCGUCUAUUAUUAUUAUUAUUAUUAUUAUUAA [Most simple design] (puzzle: Sensor for hsa-mir-208a version 2) | 282 | 40.1 | 340 |  |  | 
AAUUAUUAACAUGAGGAUCACCCAUGUAUUUAUGUUAGUAUCUAACAUAGUCUUAUUAAGCUUUGUGAUUGUCUUAU [Cole's First Solution] (puzzle: Sensor for hsa-mir-208a version 2) | 29.8 | 32.6 | 38.8 |  |  | 
AAUUAUUAACAUGAGGAUCACCCAUGUGUUUUUGGGCUCGUUUUAUUUAUUAUUAUUAUUAUUAUUAUUAUUAUUAA [SB switch1] (puzzle: Sensor for hsa-mir-208a version 2) | 85.3 | 69.1 | 154 |  |  | 
AAUUAUUAACAUGAGGAUCACCCAUGUGUUUUUUGCUCGUCAUGUAUUAUUAUUAUUAUUAUUAUUAUUAUUAUUAA [my second RNA] (puzzle: Sensor for hsa-mir-208a version 2) | 41.9 | 18.8 | 52.4 |  |  | 
AAUUGUUCCUGAGGAUAUCAGUAGUUUGCUCUUUGAGAAGGCAGUACAUGAGGAUCACCCAUGUUGUGGUUUGAUAGAAUGAUA [JR_SSNG1_Sub006] (Eterna round: R96, puzzle: Same State NG 1) |  |  |  | 131 | 103 | 137
AAUUGUUUCUGAGGAUAUCAGUAGUAUGCCAAUUGAGAAGGCAGUACAUGAGGAUCACCCAUGUUAUGGUUUGAUAGAAUGAUA [JR_SSNG1_Sub001] (Eterna round: R96, puzzle: Same State NG 1) |  |  |  | 74.8 | 51.2 | 54.1
AAUUUAAUACAUGAGGAUCACCCAUGUAAAUUAAUUAAGAUCUAGGAUAUCAGCUCGUUUAGAGCUGAGAAGGAGAUCACAUGU [SSNG3/19-B3] (Eterna round: R96, puzzle: Same State NG 3) |  |  |  |  | 12.5 | 
AAUUUAAUACAUGAGGAUCACCCAUGUAAUACUAGUAAGAUCUAGGAUAUCAGCUCGAAUAGAGCUGAGAAGGAGAUCACAUGU [SSNG3/19-C1] (Eterna round: R96, puzzle: Same State NG 3) |  |  |  | 24.2 | 63.9 | 82
AAUUUAAUACAUGAGGAUCACCCAUGUAAUACUUGUAAGAUCAAGGAUAUCAGCUCGAUUAGAGCUGAGAAGGUGAUCACAUGU [SSNG3/19-D2] (Eterna round: R96, puzzle: Same State NG 3) |  |  |  |  | 21.6 | 
